In US20200216522A1 (DENALI THERAPEUTICS, published 2020):
Where “and” joins values, the source holds several entries; their conditions need not be identical. Identical values can stand only once. Like-named read-outs stand apart in the source and are kept apart here.

What was measured:
[1] = molecular target: T1, full-length human Tau (Tau441; 2N4R), recombinant (human, UniProt P10636 1-758); experiment: SPR Biacore
T1 construct: made in E. coli, His6-Smt3 tag removed; biotinylated through amines for Octet and phage work; also called r-Tau; recombinant Tau
T1 sequence (P10636 other isoform, or with tags, fused parts or gaps limits assumed): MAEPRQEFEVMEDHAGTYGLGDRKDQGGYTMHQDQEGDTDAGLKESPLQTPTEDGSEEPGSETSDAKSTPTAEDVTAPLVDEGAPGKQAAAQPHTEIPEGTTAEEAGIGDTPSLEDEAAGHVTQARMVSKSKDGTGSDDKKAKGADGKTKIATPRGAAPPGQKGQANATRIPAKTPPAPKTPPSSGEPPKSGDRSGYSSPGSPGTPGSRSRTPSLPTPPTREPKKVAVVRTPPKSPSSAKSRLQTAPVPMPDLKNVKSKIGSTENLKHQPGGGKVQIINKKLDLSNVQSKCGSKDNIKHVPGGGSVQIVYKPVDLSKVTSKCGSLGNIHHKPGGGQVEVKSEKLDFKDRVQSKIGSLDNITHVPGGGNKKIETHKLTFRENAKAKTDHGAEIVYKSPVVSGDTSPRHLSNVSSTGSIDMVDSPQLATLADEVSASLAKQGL

[2] = molecular target: T1, full-length human Tau (Tau441; 2N4R), …; experiment: SPR Biacore; remark: listed apart in the source
Outline: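 Each hulC7 IgG variant was captured via anti-human Fc on a CM5 chip, and 3-fold serial dilutions were injected at 30 µL/min with 3 min association and 10 min dissociation. Signal from a flow cell capturing irrelevant IgG was subtracted. kon and koff came from a simultaneous 1:1 Langmuir fit.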

[3] = molecular target: T1, full-length human Tau (Tau441; 2N4R), …; experiment: SPR Biacore; remark: listed apart in the source
Method: IgG was purified with protein A affinity chromatography. The affinity of each hulC7 IgG variant for r-Tau was determined by surface plasmon resonance using a Biacore™ T200 instrument. Biacore™ Series S CM5 sensor chips were immobilized with monoclonal mouse anti-human IgG (Fc) antibody (Human antibody capture kit from GE Healthcare). Serial 3-fold dilutions of each hulC7 variant were injected at a flow rate of […]. Each sample was analyzed with 3-minute association and 10-minute dissociation. After each injection, the chip was regenerated using 3 M MgCl₂. Binding response was corrected by subtracting the RU from a flow cell capturing an irrelevant IgG at similar density. A 1:1 Languir model of simultaneous fitting of kₒₙ and koff was used for kinetics analysis.

[4] = molecular target: T1, full-length human Tau (Tau441; 2N4R), …; experiment: SPR Biacore; remark: listed apart in the source
[5] = molecular target: T2, C-terminal truncated human Tau (Tau(1-421)) (human, UniProt P10636 1-738); experiment: Fab ELISA
T2 construct: also called 1-421 (2N4R)
T2 sequence (P10636 other isoform, or with tags, fused parts or gaps limits assumed): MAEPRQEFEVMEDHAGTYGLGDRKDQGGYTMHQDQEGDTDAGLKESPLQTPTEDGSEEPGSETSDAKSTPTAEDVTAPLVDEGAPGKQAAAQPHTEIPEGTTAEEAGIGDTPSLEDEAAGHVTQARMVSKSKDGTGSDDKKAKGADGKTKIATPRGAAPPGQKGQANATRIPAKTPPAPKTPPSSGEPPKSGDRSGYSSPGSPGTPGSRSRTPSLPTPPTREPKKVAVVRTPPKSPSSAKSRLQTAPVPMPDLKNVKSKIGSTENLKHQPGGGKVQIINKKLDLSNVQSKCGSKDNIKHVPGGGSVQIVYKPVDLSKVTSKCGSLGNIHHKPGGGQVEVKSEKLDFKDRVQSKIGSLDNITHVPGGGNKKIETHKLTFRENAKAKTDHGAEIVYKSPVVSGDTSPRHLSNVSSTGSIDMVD
Method: (§1) Half-area ELISA plates (Costar™) were coated overnight at 4° C. with 25 μL per well of 0.5 μg/mL r-Tau or p-Tau. The plates were washed three times with PBST using a BioTek® plate washer. The plates were then blocked for one hour at room temperature with 100 μL per well of PBSA. After washing three times with PBST, the periplasmically-expressed Fabs were added ([…]) and the plates were incubated for one hour. The plates were subsequently washed three times with PBST, and 25 μL per well of PBSA containing a 1:5,000 dilution of HRP-conjugated rabbit anti-human kappa (obtained from Bethyl Laboratories) was added. The plates were incubated at room temperature for 30 minutes, then washed three times with PBST. The plates were developed by adding 25 μL per well of TMB substrate (obtained from Thermo Fisher) and quenched with 2N H₂SO₄. The signal was quantified on a BioTek® plate reader at A₄₅₀. Wells with signal greater than 5-fold over background for both r-Tau and p-Tau were considered positive and the clones were re-arrayed from the primary culture for confirmation of binding (by repeat of ELISA) and sequencing of the variable regions.
(§2) ELISAs were performed essentially as described above, but coating was performed using 1 μg/mL of each recombinant Tau species and using a 1:1 dilution (in PBS with 0.1% BSA, 0.05% Tween®) of Fab containing supernatant. The results of the ELISAs, showing Fab binding to cyno Tau and mouse Tau, as well as binding to phosphorylated full-length human Tau and the human Tau isoforms, are shown in Table 1 below.

[6] = molecular target: T3, hyperphosphorylated recombinant human Tau441 (p-Tau) (human, UniProt P10636 1-758, phosphorylated in vitro with PKA and GSK3beta; sites not listed); experiment: Fab ELISA
T3 construct: also called p-Tau (2N4R); phosphorylated r-Tau
Method: as §1, §2

mouse Tau = mouse Tau (mouse, UniProt P10637 2-733); experiment: Fab ELISA
mouse Tau, sequence (P10637 other isoform, or with tags, fused parts or gaps limits assumed): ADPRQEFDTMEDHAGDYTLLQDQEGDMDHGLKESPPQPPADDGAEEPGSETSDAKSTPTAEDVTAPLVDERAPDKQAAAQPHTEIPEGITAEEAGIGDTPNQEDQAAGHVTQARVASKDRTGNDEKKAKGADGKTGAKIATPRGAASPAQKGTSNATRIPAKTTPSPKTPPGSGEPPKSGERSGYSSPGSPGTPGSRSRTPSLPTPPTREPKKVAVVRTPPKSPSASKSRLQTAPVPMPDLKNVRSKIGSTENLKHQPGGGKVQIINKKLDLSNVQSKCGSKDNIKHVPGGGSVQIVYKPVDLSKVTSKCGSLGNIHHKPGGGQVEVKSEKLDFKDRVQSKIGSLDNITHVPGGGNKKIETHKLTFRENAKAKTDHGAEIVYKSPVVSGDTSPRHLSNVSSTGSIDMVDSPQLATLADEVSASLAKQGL
Method: as §1, §2

cynomolgus monkey Tau = molecular target: T4, cynomolgus monkey Tau (cynomolgus monkey, UniProt P57786 2-459 (rhesus entry)); experiment: Fab ELISA
T4 construct: also called cyno Tau; cyno-Tau
T4 sequence (P57786 other isoform, or with tags, fused parts or gaps limits assumed): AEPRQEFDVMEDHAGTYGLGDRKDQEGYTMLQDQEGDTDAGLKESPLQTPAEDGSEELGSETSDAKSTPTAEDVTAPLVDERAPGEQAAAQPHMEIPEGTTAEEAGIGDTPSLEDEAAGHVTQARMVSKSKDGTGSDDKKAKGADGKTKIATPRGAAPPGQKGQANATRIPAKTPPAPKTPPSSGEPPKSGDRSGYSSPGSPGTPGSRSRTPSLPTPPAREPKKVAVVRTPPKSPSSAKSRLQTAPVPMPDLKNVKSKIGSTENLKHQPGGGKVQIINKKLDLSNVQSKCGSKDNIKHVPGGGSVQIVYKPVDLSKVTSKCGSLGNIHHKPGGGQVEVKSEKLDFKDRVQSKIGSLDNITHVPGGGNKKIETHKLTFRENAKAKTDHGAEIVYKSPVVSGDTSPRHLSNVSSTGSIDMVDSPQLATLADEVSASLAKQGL
Method: as §1, §2

[7] = molecular target: T1, full-length human Tau (Tau441; 2N4R), …; experiment: Fab ELISA
Method: as §1, §2

[8] = molecular target: T5, N-terminal truncated human Tau (Tau(50-441)) (human, UniProt P10636 50-758); experiment: Fab ELISA
T5 construct: also called 50-441 (2N4R)
T5 sequence (P10636 other isoform, or with tags, fused parts or gaps limits assumed): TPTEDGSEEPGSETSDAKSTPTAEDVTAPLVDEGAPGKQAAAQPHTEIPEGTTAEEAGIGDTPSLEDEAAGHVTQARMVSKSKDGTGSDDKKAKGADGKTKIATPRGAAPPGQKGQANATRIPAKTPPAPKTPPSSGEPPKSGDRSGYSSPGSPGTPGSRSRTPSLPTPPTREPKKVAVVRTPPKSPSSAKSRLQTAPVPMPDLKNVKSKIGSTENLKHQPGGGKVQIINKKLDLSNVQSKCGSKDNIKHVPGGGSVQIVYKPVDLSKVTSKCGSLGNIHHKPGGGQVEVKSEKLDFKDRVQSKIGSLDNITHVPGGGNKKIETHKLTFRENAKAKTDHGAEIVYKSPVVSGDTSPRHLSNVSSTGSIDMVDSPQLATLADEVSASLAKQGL
Method: as §1, §2

[9] = molecular target: human Tau splice isoform 0N3R (Tau352) (human, UniProt P10636 1-758); experiment: Fab ELISA
human Tau splice isoform 0N3R (Tau352), sequence (P10636 other isoform, or with tags, fused parts or gaps limits assumed): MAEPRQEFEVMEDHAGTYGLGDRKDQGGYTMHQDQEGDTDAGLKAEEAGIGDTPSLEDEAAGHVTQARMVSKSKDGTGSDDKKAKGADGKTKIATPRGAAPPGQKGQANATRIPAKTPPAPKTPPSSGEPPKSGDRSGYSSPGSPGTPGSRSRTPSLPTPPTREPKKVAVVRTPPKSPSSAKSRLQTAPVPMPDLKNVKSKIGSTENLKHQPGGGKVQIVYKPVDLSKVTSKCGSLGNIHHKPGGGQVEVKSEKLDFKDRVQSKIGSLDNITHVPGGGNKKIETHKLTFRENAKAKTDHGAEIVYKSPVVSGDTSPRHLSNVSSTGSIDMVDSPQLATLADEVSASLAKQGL
Method: as §1, §2

[10] = molecular target: human Tau splice isoform 2N3R (Tau410) (human, UniProt P10636 1-758); experiment: Fab ELISA
human Tau splice isoform 2N3R (Tau410), sequence (P10636 other isoform, or with tags, fused parts or gaps limits assumed): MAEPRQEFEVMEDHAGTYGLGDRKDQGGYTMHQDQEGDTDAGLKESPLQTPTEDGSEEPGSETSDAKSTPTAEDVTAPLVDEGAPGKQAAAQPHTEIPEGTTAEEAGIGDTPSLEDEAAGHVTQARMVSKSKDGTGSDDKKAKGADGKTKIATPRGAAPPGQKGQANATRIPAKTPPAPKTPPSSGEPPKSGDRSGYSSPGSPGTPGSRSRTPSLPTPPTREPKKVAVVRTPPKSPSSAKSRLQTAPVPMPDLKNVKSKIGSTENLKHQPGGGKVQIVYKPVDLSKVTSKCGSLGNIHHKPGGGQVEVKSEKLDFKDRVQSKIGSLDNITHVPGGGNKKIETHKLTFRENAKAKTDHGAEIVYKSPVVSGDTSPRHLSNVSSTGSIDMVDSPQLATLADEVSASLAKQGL
Method: as §1, §2

[11] = molecular target: human Tau splice isoform 1N4R (Tau412) (human, UniProt P10636 1-758); experiment: Fab ELISA
human Tau splice isoform 1N4R (Tau412), sequence (P10636 other isoform, or with tags, fused parts or gaps limits assumed): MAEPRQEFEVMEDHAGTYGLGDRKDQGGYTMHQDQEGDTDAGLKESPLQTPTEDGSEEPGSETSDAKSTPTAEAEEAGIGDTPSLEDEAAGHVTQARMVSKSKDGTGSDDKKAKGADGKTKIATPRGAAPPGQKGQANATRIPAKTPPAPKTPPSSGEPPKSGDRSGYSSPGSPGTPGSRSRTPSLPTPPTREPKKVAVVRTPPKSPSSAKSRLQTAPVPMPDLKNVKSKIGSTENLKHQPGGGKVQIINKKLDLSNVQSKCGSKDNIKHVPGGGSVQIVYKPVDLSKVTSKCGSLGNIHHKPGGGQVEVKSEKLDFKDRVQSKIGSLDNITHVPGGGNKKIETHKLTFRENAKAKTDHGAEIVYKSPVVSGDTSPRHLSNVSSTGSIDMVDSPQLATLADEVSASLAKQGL
Method: as §1, §2

[12] = molecular target: human Tau splice isoform 0N4R (Tau383) (human, UniProt P10636 1-758); experiment: Fab ELISA
human Tau splice isoform 0N4R (Tau383), sequence (P10636 other isoform, or with tags, fused parts or gaps limits assumed): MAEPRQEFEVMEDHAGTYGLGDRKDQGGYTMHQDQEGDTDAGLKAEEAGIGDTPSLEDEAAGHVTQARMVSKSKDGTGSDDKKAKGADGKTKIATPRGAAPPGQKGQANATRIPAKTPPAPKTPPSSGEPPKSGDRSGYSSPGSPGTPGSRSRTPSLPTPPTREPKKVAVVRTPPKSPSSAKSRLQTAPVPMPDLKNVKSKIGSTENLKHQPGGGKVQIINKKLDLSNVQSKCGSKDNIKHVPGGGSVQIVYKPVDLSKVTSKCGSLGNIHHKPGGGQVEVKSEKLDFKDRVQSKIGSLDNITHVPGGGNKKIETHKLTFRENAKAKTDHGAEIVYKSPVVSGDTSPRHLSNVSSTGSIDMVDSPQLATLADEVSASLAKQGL
Method: as §1, §2

[13] = molecular target: human Tau splice isoform 1N3R (Tau381) (human, UniProt P10636 1-758); experiment: Fab ELISA
human Tau splice isoform 1N3R (Tau381), sequence (P10636 other isoform, or with tags, fused parts or gaps limits assumed): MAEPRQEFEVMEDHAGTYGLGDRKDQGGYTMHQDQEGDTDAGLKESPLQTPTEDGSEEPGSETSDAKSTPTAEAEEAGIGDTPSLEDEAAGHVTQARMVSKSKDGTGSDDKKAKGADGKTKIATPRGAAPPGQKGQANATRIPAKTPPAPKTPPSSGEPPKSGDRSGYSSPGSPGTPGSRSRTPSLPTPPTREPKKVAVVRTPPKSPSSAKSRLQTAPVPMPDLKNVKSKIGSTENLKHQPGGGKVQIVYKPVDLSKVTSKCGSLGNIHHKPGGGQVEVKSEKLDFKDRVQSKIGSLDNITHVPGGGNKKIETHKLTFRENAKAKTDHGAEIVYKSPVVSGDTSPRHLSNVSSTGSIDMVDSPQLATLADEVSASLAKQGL
Method: as §1, §2

[14] = molecular target: T1, full-length human Tau (Tau441; 2N4R), …; experiment: Octet binning on biotin-r-Tau; competitor 1G7
Method: (§3) Epitope binning assays were performed using a FortéBio® Octet® RED384 instrument using FortéBio® Streptavidin biosensors. Biotinylated recombinant Tau was diluted to a concentration of 2 μg/mL in kinetic buffer (obtained from FortéBio®) and captured onto individual biosensors for 1 minute. A baseline was then established for 1 minute in kinetic buffer. The loaded biosensors were dipped into 10 μg/mL of the first chimeric IgG antibody until signal saturation, followed by dipping into 1 μg/mL of a second antibody. The binding for the second antibody was normalized to its total binding in the absence of the first antibody.

[15] = molecular target: T1, full-length human Tau (Tau441; 2N4R), …; experiment: Octet binning on biotin-r-Tau; row antibody Ab107 (anti-BACE1 control)
Method: as §3

[16] = molecular target: T1, full-length human Tau (Tau441; 2N4R), …; experiment: Octet binning on biotin-r-Tau; competitor 1C7
Method: as §3

[17] = molecular target: T1, full-length human Tau (Tau441; 2N4R), …; experiment: Octet binning on biotin-r-Tau; competitor 1D10
Method: as §3

[18] = molecular target: T1, full-length human Tau (Tau441; 2N4R), …; experiment: Octet binning on biotin-r-Tau; competitor 1A5
Method: as §3

[19] = molecular target: T1, full-length human Tau (Tau441; 2N4R), …; experiment: SPR Biacore, IgG captured, r-Tau injected
Method: The affinity of chimeric IgG antibodies 1C7, 1A1, 1A5, 1D10, and 1G7 for recombinant Tau was determined by surface plasmon resonance using a Biacore™ T200 instrument. Biacore™ Series S CM5 sensor chips were immobilized with monoclonal mouse anti-human IgG (Fc) antibody (human antibody capture kit from GE Healthcare). 1 μg/mL of antibody was captured for 1 minute on each flow cell and serial 3-fold dilutions of recombinant Tau were injected at a flow rate of […]. Each sample was analyzed with a 3-minute association and a 10-minute dissociation. After each injection the chip was regenerated using 3M MgCl₂. Binding response was corrected by subtracting the RU from a flow cell capturing an irrelevant IgG at similar density. A 1:1 Languir model of simultaneous fitting of kₒₙ and koff was used for kinetics analysis.

Row | Binder | Kd [1] | A450 avg. [5] | A450 avg. [6] | A450 avg. (mouse Tau) | A450 avg. (cynomolgus monkey Tau) | A450 avg. [7] | A450 avg. [8] | A450 avg. [9] | A450 avg. [10] | A450 avg. [11] | A450 avg. [12] | A450 avg. [13] | further results
1 | hu1C7.v2 (S49A) (antibody, V domains shown) VH: EVQLLESGGGLVQPGGSLRLSCAASGFTFSSYGMSWVRQAPGKGLEWVASISGDGGSYIHYADSVKGRFTISRDNSKNTLYLQMNSLRAEDTAVYYCARLPYWGQGTLVTVSS VL: DIVMTQSPDSLAVSLGERATINCKSSQSLLNSGNQKNYLTWYQQKPGQPPKLLIYWASTRESGVPDRFSGSGSGTDFTLTISSLQAEDVAVYYCQQYNSYPLTFGQGTKVEIKR | ~1.6 nM |  |  |  |  |  |  |  |  |  |  |  | fold weaker binding than chimeric 1C7 [1]: ~2 fold; Kd [2]: 1.45 nM; koff [2]: 0.000851 s⁻¹; kon [2]: 585000 M⁻¹ s⁻¹; Kd [3]: 1.5 nM; koff [3]: 0.0011 s⁻¹; kon [3]: 760000 M⁻¹ s⁻¹; Kd [4]: 1.5 nM; koff [4]: 0.0011 s⁻¹; kon [4]: 760000 M⁻¹ s⁻¹
2 | hu1C7.v4 (S49A, S75A) (antibody, V domains shown) VH: EVQLLESGGGLVQPGGSLRLSCAASGFTFSSYGMSWVRQAPGKGLEWVASISGDGGSYIHYADSVKGRFTISRDNAKNTLYLQMNSLRAEDTAVYYCARLPYWGQGTLVTVSS VL: DIVMTQSPDSLAVSLGERATINCKSSQSLLNSGNQKNYLTWYQQKPGQPPKLLIYWASTRESGVPDRFSGSGSGTDFTLTISSLQAEDVAVYYCQQYNSYPLTFGQGTKVEIKR | ~1.6 nM |  |  |  |  |  |  |  |  |  |  |  | fold weaker binding than chimeric 1C7 [1]: ~2 fold; Kd [3]: 1.8 nM; koff [3]: 0.0011 s⁻¹; kon [3]: 660000 M⁻¹ s⁻¹
3 | Clone 1C7 Fab (Fab, V domains shown, crude periplasmic Fab; mouse V regions joined to human CH1 and human kappa constant) VH: EVKLVESGGGLVKPGGSLKLSCAASGFTFSSYGMSWVRQTPEKRLEWVASISGDGGSYIHYADSVKGRFTISRDSAKNTLYLQMSSLRSEDTALYYCARLPYWGQGTLVTVSA VL: DIVMTQSPSSLTVTAGEKVTMSCKSSQSLLNSGNQKNYLTWYQQKPGQPPKLLIYWASTRESGVPDRFTGSGSGTDFTLTISNVQSEDLAEYFCQQYNSYPLTFGAGTKLELKR |  | 2.12 | 2.24 | 0.06 | 2.31 | 2.73 | 2.3 | 2.4 | 2.75 | 2.69 | 2.66 | 2.7 | A450 (mouse Tau): 0.06
4 | chimeric IgG clone 1C7 (antibody, V domains shown, mouse-human chimeric IgG from HEK293; also called 1C7.IgG; anti-Tau^1C7) VH: EVKLVESGGGLVKPGGSLKLSCAASGFTFSSYGMSWVRQTPEKRLEWVASISGDGGSYIHYADSVKGRFTISRDSAKNTLYLQMSSLRSEDTALYYCARLPYWGQGTLVTVSA VL: DIVMTQSPSSLTVTAGEKVTMSCKSSQSLLNSGNQKNYLTWYQQKPGQPPKLLIYWASTRESGVPDRFTGSGSGTDFTLTISNVQSEDLAEYFCQQYNSYPLTFGAGTKLELKR | 0.8 nM and 0.44 nM |  |  |  |  |  |  |  |  |  |  |  | normalized binding of second antibody [14]: 0.84; normalized binding of second antibody [15]: 1; normalized binding of second antibody [16]: 0.03; normalized binding of second antibody [17]: 0.82; normalized binding of second antibody [18]: 0.88; Kd [19]: 0.2 nM
5 | Clone 1A1 Fab (Fab, V domains shown, crude periplasmic Fab; mouse V regions joined to human CH1 and human kappa constant) VH: EVQLQQSGAELVRPGASVRLSCTASGFNIKDSLMHWLKQRPEQGLEWIGWIDPEDGETKYAPKFQDKATITADTSSNTAYLQLSSLTSEDTAIYYCTRRDWEGPWGQGTLVTVSA VL: not shown |  | 1.52 | 2.09 | 1.95 | 1.81 | 2.5 | 1.8 | 1.54 | 2.52 | 2.39 | 2.37 | 2.59 | 
6 | Clone 1G7 Fab (Fab, V domains shown, crude periplasmic Fab; mouse V regions joined to human CH1 and human kappa constant) VH: EVQLQQSGAEVVRPGASVKLSCTTSGFNIKDSLMHWLKQRPEQGLEWIGWIDPEDGETKYAPKFQDKATITADTSSNTAYLQLSSLTSGDTAIYYCARRDWEGPWGQGTLVTVSA VL: not shown |  | 1.23 | 1.61 | 1.51 | 1.53 | 2.04 | 1.68 | 0.725 | 2 | 1.8 | 1.88 | 2.16 | 
7 | Clone 1D10 Fab (Fab, V domains shown, crude periplasmic Fab; mouse V regions joined to human CH1 and human kappa constant) VH: EVQLQQSGAELVRPGASVKLSCTASGFNIKDSLMHWMKQRPEQGLEWIGWIDPEDGETKYAPKFQDKATLTADTSSNAAYLQLSSLTSEDTAIYYCVRGDWDGGYWGQGTTLTVSS VL: not shown |  | 0.806 | 1.19 | 1.1 | 0.867 | 1.47 | 1.13 | 0.323 | 1.46 | 0.939 | 1.19 | 1.49 | 
8 | Clone 1A5 Fab (Fab, V domains shown, crude periplasmic Fab; mouse V regions joined to human CH1 and human kappa constant) VH: EVQLQQSGAELVRPGASVKLSCTASGFNIKDSLIHWVKQRPEQGLEWIGWIDPEDGETKYAPKFQDKATKTADTSSNTAYLQLSSLTSEDTAIYYCASGEWDYWGQGTSVTVSS VL: not shown |  | 1.64 | 2.08 | 2.07 | 1.9 | 2.57 | 2.08 | 1.19 | 2.54 | 2.33 | 2.48 | 2.58 | 
